According to PMC5829233, “PV1, a novel Plasmodium falciparum merozoite dense granule protein, interacts with exported protein in infected erythrocytes” (Scientific Reports, 2018):

B2: recombinant PfPV1 (P. falciparum Parasitophorous Vacuolar protein 1), His-tagged (natural protein)
chain: VVAPKSAEAVHTLTAKLDTENKAHQKYIDIINGVFSENMENFVFSITTSNGFTCSINKLDVIFDNKVTGMQKVFSDENVQYIKEASLEFKNNLLEYMKGVMPSENDFSNVRKEFQKVCVKYFSELRRKFFQIYRDPNNKNQNEDNVDNHMNIEEISQEFFSGFNPFGTMKIRKEQNPDLSQKDSLILNENNNDSLTSADQKNNNMVPMENRSFSYSQQSSHVVSFDGHDEHVEQQEQHSGDNTQEDKDQLMDLPFNKDKVFSTFLKNVTLLIEGNCTEAQQQAQEQTQEQTEEQEEEQNEKEIESDKQVQKDGEQKENDVQKKQKANAFTIQFSSSLSRKHISTTCNASSGNVFLRKGNKPFEHFNSPNFENMMKGVFGIIQNPFENGQPTFPFFKNINSISGIGNVDIPKNFMNDFLNNGNDQNTPISS
notes: also called His-tagged purified recombinant PfPV1; not shown: His6, C-terminal, kept
B3: PTP5_Tr0, GST-tagged recombinant PTP5 36 aa - 631 aa (domain or fragment)
chain: TYNNYTYNGYNNDGSKQVRCKRLLSEPAVEFDTIFDVFKESFLDQMGCSDQDKDEIKNAMKIYYDNIDMNALSNEIQTNDNFFNEFGNDVNSINKIMKTDITNEQGTSADNNTTENNVSTSQVDEQPEASTSGVERMKERSNLFANNLTEEKNDTGDIKKEENKSKPSQLDGNNHSETSSHQGEKNNENETEKKTDQNETGTKKPSKYTMNLDSPLLKGSSEGETSSKKAQEKSVEPTKKPSKYTMNLDSPLLKGSSGSETSSTKESNDSNGATKKPSKYTMNLDSPLLKGSSGGKTSSNKESNESNEPTKKPSKYTMNLDSPLLKGSSGGETSSNKESNENNEPTKKPSKYTMNLDSPLLKGSSEGETSSNKESNESNEPTKKPSKYTMNLDSPLLKGSSGGETSSNKESNENNEPTKKPSKYTMNLDSPLLKGSSEGETSSNKESNESNEPTKKPSKYTMNLDSPLLKGSSEGETSSNEKQEESNVATKKPSKYTLNLDSPLLKSETKSDVKRGSNKSFSLENIGKLDIGSLLAQNLELLKGFALNFQTLSLFFLVFVGQFYPKHFQKAAIFIGMVNVFLECKRLYGRSQKKLK
notes: not shown: GST, N-terminal, kept

Key:
[1] = target: recombinant PfPV1 (P. falciparum Parasitophorous Vacuolar protein 1), His-tagged (P. falciparum 3D7) (UniProt Q8II72); experiment: SPR; Biacore X100, CM5 chip, […]; HBS-EP+ (10 mM HEPES pH 7.4, 150 mM NaCl, 3 mM EDTA, 0.05% P20); multi-cycle kinetics, global fit
[2] = target: recombinant PfPV1 (P. falciparum Parasitophorous Vacuolar protein 1), His-tagged (P. falciparum 3D7) (UniProt Q8II72); experiment: SPR; Biacore X100, CM5 chip, […]; HBS-EP+ (10 mM HEPES pH 7.4, 150 mM NaCl, 3 mM EDTA, 0.05% P20); single-cycle kinetics, global fit
[3] = target: T1, recombinant PfPV1 (P. falciparum Parasitophorous Vacuolar protein 1), His-tagged (P. falciparum 3D7, UniProt Q8II72 23-452); experiment: SPR
T1 chain: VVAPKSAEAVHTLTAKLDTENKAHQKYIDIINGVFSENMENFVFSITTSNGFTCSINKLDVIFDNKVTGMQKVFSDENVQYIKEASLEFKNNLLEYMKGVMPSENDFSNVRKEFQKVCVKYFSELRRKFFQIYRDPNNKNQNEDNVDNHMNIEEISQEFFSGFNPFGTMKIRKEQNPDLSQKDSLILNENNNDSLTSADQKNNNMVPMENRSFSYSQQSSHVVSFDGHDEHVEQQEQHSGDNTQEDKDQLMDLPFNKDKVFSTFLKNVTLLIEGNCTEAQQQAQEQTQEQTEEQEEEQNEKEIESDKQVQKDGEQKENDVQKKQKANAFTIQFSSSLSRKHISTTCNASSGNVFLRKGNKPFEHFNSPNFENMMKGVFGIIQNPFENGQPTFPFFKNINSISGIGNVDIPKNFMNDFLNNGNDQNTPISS

[4] = target: B3; experiment: SPR; Biacore X100, CM5 chip, […]; HBS-EP+ (10 mM HEPES pH 7.4, 150 mM NaCl, 3 mM EDTA, 0.05% P20); single-cycle kinetics, global fit; conditions: both partners purified
[5] = target: B2; experiment: as above; conditions: both partners purified

For “PTP5_Tr1, GST-tagged recombinant PTP5 36 aa - 334 aa (domain or fragment)”, the Kd [1] was 938 nM.

With “PTP5_Tr2, GST-tagged recombinant PTP5 537 aa - 631 aa (domain or fragment)” the Kd [2] was 1.24 nM.

B1: Pf3D7_0801000N, N-terminal truncate of Pf3D7_0801000 spanning 93 aa - 494 aa (domain or fragment)
chain: GANPESISLGYELSEKDEGNKNDLINSATDVSTELENLKERLFPELELYTNDQNSRNNTPNLRKGSLGFDSFKKLELGTLNQFDKDKMINLKDETNMNEFEGFLGRNSMASNVVTSELFDEPVDDSSSTTTSTGTKLQNVPSNDNNGELLKDEPIDDYINNNSKVESEDNYYAQQNMQSQSKDNYASEQNVADQSTDNYPTQHDVPVQLRDNYASEQEYFDRGEQLNDVSADNNTSNKLKDEPVDNNTSNKLKDEPVDNNTSNKLKDEPVDDNTSNKLKDEPVDNNTINKLKDEPVDDNTSNILKDEPVDDHAGKHLKDEPVDDHAGKHMKDEPVDIDRTNIKKGLNEQHVNPWTTTLADLKNINNSMKIEKNNKSNEQVKNTSVSKSCDIIKPSKFNKKNL
Work on B1 yielded a Kd [3] of 45.4 nM.

For B2, the Kd [4] was 2.71 nM.

In the case of B3, the “stoichiometry N” value [5] is reported as 1.
